From US20220040319A1 (Regeneron, published 2022) come the findings set out here.

The chains are these.
B1: H4H13299P2 (antibody, human IgG4, V domains shown)
VH: EVQLVESGGGLVQPGGSLRLSCAASGFIFSNYEMNWVRQAPGKGLEWISYITSSGNMKYYADSVKGRFTISRDNDKNSLYLQMSSLRVEDTAVYYCVRGGRFLEWLTYYVMVVWGQGTTVTVSS
VL: not shown
B2: H4H13291P2 (antibody, human IgG4, V domains shown)
VH: QVQLVESGGGVVQPGGSLRLSCAASGFTFSGYGMHWVRQAPGKGLEWMAVIWYDGSNDYYPDSVKGRFTISRDNSKNTLYLQMNSLRVEDTAVYYCARDAWDLLRSFDYWGQGTLVTVSS
VL: not shown
B3: H4H13290P2 (antibody, human IgG4, V domains shown)
VH: QVQLQESGPGLVKPSETLSLTCTVSGDSISSYYWTWIRQPPGKGLEWIGYIFYRGGTTYNPSLKSRVTISVDTSKNQFSLKLRSVTAADTAVYYCARGDDLLVVTSVYWYIDLWGRGTLVTVSS
VL: not shown
B4: H4H13311P2 (antibody, human IgG4, V domains shown)
VH: QVQLVESGGGVVQPGRSLRLSCAASGFTFSSYAMHWVRQAPGRGLEWVAVIWHDGDVEYYVDSVKDRFTISRDNSKSTLYLQMNSLRAEDTALYYCAREAWDLLRPFDYWGQGTLVTVSS
VL: not shown
B5: H4H13295P2 (antibody, human IgG4, V domains shown)
VH: QVQLVESGGGVVQPGRSLRVSCVVSGFTFSSFGMHWVRQAPDKGLEWVAVIWYDGSNDYYSDSVKGRFTISRDNSKNTLFLQMNRLRAEDTAVYYCARANNWNRFDAFDLWGQGTMVTVSS
VL: not shown
B6: H4H13318P2 (antibody, human IgG4, V domains shown)
VH: QVQLVESGGGVVQPGRSLRLSCVASGFSFSNFGMHWVRQAPGKGLEWVAIIWYDGSNKYYSDSVKGRFTISRDNSKNTLYLQMNSLRVDDTAVYYCARFDRWKFDAFDIWGQGTMVTVSS
VL: not shown
B7: H1H13316P2 (antibody, IgG1, V domains shown)
VH: EVQLVESGGGLVQPGGSLRLSCAASGFTFRSYVMSWFRQAPGKGLEWVSGMSGSGGSTSYADSVKGRFTISRDNSKNTLYLLMNSLRTEDTAVYYCAKENGANWNYGYYGMDVWGQGTTVTVSS
VL: not shown
B8: H4H13306P2 (antibody, human IgG4, V domains shown)
VH: EVQLVESGGGLVQPGTSLRLSCAASGFTFDDYAMHWVRQAPGKGLEWVSGITWNSYNIDYADSVKGRFTISRDNAKNSLYLQMNSLRAEDTALYYCAKDDDYSNYVYFDYWGQGTLVTVSS
VL: not shown
B9: H4H13331P2 (antibody, human IgG4, V domains shown)
VH: QVQLQESGPGLVKSSETLSLTCTVSGGSIRNFYWSWLRQPPGKGLEWIGHINYNGGTDYNPSLKSRVTISVDTSKNQFSLNLNSVTAADTAVYYCARQRFYGMDVWGPGTTVTVSS
VL: not shown
B10: H4H13300P2 (antibody, human IgG4, V domains shown)
VH: QVQLVESGGGVVQPGRSLRLSCAVSGFTFSSYGMHWVRQAPGKGLEWVANIWYDGTNDYYPYSVKGRFTISRDNSQNTLYLQMNSLRAEDTAVYYCAREDFINYRSFDYWGQGTLVTVSS
VL: not shown
B11: H4H13309P2 (antibody, human IgG4, V domains shown)
VH: QVQLVQSGTEVKEPGASVKVSCKASGYSFTTYGISWLRQAPGQGLEWMGWISTYNGDTISAQMLQDRVTLTADTSTRTAYMELRSLRSDDTAVYYCARGHEYDSLVYSYWGQGTLVTVSS
VL: not shown
B12: H4H13319P2 (antibody, human IgG4, V domains shown)
VH: QVQLVESGGGVVQPGRSLRLSCAASGFTFSSFAMHWVRQAPGKGLEWVAVIWYDGSNDYYAASVKGRFTISRDNSKNTLYLEMNRLRAEDTAVYHCARDNWNYWGGMDVWGQGTTVTVSS
VL: not shown
Wherever % Inhibition, HEK293/SRE-Luc Blocking Activity (HGF, 1 h mAb pre-bind) is given: test concentration or dose not given here.

The target in the first test is T1, human MET on cells (human, UniProt P08581 25-1390). Put plainly: cell-based or functional assay.
T1 sequence (P08581 25-1390 limits assumed, form in doubt): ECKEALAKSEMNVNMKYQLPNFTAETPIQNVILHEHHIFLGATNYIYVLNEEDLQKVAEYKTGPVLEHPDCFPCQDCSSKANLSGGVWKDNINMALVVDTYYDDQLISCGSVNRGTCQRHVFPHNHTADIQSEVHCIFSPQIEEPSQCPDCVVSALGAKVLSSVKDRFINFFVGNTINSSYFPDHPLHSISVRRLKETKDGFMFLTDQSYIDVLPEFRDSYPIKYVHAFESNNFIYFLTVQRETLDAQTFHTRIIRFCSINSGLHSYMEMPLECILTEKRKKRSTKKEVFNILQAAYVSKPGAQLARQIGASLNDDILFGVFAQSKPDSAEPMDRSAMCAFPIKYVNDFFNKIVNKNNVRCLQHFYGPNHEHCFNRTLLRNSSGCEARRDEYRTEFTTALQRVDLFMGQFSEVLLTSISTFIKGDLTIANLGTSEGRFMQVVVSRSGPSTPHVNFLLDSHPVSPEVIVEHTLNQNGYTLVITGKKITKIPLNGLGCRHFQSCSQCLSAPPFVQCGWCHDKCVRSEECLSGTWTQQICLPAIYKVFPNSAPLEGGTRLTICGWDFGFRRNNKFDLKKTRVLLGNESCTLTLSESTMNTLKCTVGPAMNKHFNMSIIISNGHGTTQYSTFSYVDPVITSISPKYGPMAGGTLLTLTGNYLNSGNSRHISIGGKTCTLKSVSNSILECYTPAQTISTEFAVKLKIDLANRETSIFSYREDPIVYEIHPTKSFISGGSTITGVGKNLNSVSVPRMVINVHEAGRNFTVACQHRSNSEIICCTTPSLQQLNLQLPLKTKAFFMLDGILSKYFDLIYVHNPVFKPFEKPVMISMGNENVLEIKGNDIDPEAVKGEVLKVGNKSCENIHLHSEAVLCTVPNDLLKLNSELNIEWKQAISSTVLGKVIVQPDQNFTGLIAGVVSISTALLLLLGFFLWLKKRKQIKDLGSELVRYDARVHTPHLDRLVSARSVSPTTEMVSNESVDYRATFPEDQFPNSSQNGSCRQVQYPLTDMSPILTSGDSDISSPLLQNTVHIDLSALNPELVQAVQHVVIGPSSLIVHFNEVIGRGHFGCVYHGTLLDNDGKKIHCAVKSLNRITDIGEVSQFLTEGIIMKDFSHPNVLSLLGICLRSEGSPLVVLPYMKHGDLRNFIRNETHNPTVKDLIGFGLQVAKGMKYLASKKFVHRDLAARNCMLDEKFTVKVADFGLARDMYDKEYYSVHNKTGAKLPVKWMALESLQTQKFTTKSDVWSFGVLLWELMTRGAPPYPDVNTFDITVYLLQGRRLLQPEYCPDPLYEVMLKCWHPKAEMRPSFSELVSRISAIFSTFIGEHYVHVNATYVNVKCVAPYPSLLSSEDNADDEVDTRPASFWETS
Consider B1, for which the “% Growth Inhibition, SNU5 cells” value was -8%.
Take B2: the “% Growth Inhibition, SNU5 cells” value was found to be 24%.
Still for that read-out and setting: then B3, with 12%; and B4, with 8%; and B5, with 30%.
Turning to B6, the “% Growth Inhibition, SNU5 cells” value was determined as 18% and the “IC50, SNU5 growth” value amounted to 0.051 nM.
On the same counts, the results for B7 are 30% and 0.2 nM.
On the same counts, the results for B8 are 28% and 0.071 nM.
On to B9, for which the “% Growth Inhibition, SNU5 cells” value turned out to be 5%.
Same read-out and setting: the same measure for B10: 16%.
For the molecule B11, the “% Growth Inhibition, SNU5 cells” value came out at 22% and the “IC50, SNU5 growth” value stood at 0.1 nM.
On the same counts, the results for B12 are 23% and 0.1 nM.

The next test deals with T1, human MET on cells. The experiment in a line: cell-based or functional assay. The source holds these as a separate data set.
For B1, the “% Inhibition, HEK293/SRE-Luc Blocking Activity (HGF, 1 h mAb pre-bind)” value was found to be 51%; the “EC50, Ligand (HGF)-Independent HEK293/SRE-Luc Activation” value came out at 0.0037 nM; the “Fold Response, Ligand (HGF)-Independent HEK293/SRE-Luc Activation” value was found to be 14.4 fold.
As to B2, the “% Inhibition, HEK293/SRE-Luc Blocking Activity (HGF, 1 h mAb pre-bind)” value was 61%; the “EC50, Ligand (HGF)-Independent HEK293/SRE-Luc Activation” value turned out to be 0.39 nM; the “Fold Response, Ligand (HGF)-Independent HEK293/SRE-Luc Activation” value was 2.7 fold; the “IC50, HEK293/SRE-Luc Blocking Activity (HGF, 1 h mAb pre-bind)” value (from here on “IC50, HEK293/SRE-Luc Blocking Activity”) turned out to be 0.13 nM.
For the molecule B3, the “% Inhibition, HEK293/SRE-Luc Blocking Activity (HGF, 1 h mAb pre-bind)” value came out at 56%; the “EC50, Ligand (HGF)-Independent HEK293/SRE-Luc Activation” value was under 0.002 nM; the “Fold Response, Ligand (HGF)-Independent HEK293/SRE-Luc Activation” value came to 9.8 fold; the “IC50, HEK293/SRE-Luc Blocking Activity” value was under 0.002 nM.
For the molecule B4, the “% Inhibition, HEK293/SRE-Luc Blocking Activity (HGF, 1 h mAb pre-bind)” value stood at 62%; the “EC50, Ligand (HGF)-Independent HEK293/SRE-Luc Activation” value came to 0.3 nM; the “Fold Response, Ligand (HGF)-Independent HEK293/SRE-Luc Activation” value is 5.2 fold; the “IC50, HEK293/SRE-Luc Blocking Activity” value was determined as 0.035 nM.
The like results for B5 were, in that order, 70%, 0.3 nM, 2.8 fold and 0.055 nM.
As for B6, the “% Inhibition, HEK293/SRE-Luc Blocking Activity (HGF, 1 h mAb pre-bind)” value turned out to be 77%; the “Fold Response, Ligand (HGF)-Independent HEK293/SRE-Luc Activation” value is 3.1 fold; the “IC50, HEK293/SRE-Luc Blocking Activity” value was 0.1 nM.
Turning to B7, the “% Inhibition, HEK293/SRE-Luc Blocking Activity (HGF, 1 h mAb pre-bind)” value is 86%; the “Fold Response, Ligand (HGF)-Independent HEK293/SRE-Luc Activation” value worked out at 1.7 fold; the “IC50, HEK293/SRE-Luc Blocking Activity” value turned out to be 0.04 nM.
Consider B8, for which the “EC50, Ligand (HGF)-Independent HEK293/SRE-Luc Activation” value is 0.013 nM.
As for B9, the “% Inhibition, HEK293/SRE-Luc Blocking Activity (HGF, 1 h mAb pre-bind)” value was determined as 75%; the “EC50, Ligand (HGF)-Independent HEK293/SRE-Luc Activation” value is 0.0023 nM; the “Fold Response, Ligand (HGF)-Independent HEK293/SRE-Luc Activation” value is 7.1 fold; the “IC50, HEK293/SRE-Luc Blocking Activity” value was under 0.01 nM.
On the same counts, the results for B10 are 69%, 0.48 nM, 2.8 fold and 0.12 nM.
In the case of B11, the “% Inhibition, HEK293/SRE-Luc Blocking Activity (HGF, 1 h mAb pre-bind)” value was 77%; the “EC50, Ligand (HGF)-Independent HEK293/SRE-Luc Activation” value is 0.39 nM; the “Fold Response, Ligand (HGF)-Independent HEK293/SRE-Luc Activation” value was found to be 9.2 fold; the “IC50, HEK293/SRE-Luc Blocking Activity” value amounted to 0.2 nM.
On the same counts, the results for B12 are 67%, 0.18 nM, 4.8 fold and 0.052 nM.
